Test results reported in article PMC11389852, “Developing deprotectase biocatalysts for synthesis†” (Faraday Discussions, 2024).

Target: the molecule itself
Test: SEC; size exclusion chromatography of recombinant Cbz-ase (Fig. S32); conditions not told in the main text

B1: Sphingomonas paucimobilis Cbz-ase (amidohydrolase), recombinant (enzyme)
chain: MVQPTPTPQSELPGLIARDMEGLMTLYRDLHANPELSLQEVNTAAKLAKRLKAMKFDVTEKVGGTGVVAVMKNGSGPVLLIRADMDGLPVVEQTGLDFASKVRTKTPEGVETGVMHACGHDTHMTAFIETAKLLSSSKDKWKGTLVMILQPAEEVGKGARDMLEDGLYTRFPRPTHAIAFHDAANLQAGVVGYTPGYALANVDSVDIVVKGLGGHGAYPQTTRDPIVLGSRIVTSLQTLVSREQDPQDPAVVTVGSFQAGAKHNIIPDQALLLLTVRSYSDETRAKLIKGIERIARGEAIAAGVPDDKMPVVSVKDEFTPSTYNPPEFAEQMGALLKGHFAEGRVVKTPAVMGGEDFGRFYRADKSINSFIFWVGGVPADKMAAAQAGQITLPSLHSPFWAPEADKVIATASEAMTVLAMDILKKD
B1 was tested. Which “stoichiometry N” value did it give?
Its value is 4.
